Assay results taken from article PMC10907699, “The IRE1β-mediated unfolded protein response is repressed by the chaperone AGR2 in mucin producing cells” (The EMBO Journal, 2023).

B1: mouse AGR2 (21-175), wild-type [mouse] / MBP-hIRE1b_LD_(35-428)-AviTag-His7 [modified: biotin on the AviTag (endogenous biotinylation of a fraction of the protein in E. coli); biotin on the AviTag (endogenous biotinylation of a fraction of … (parent complex)
chain 1: KDTTVKSGAKKDPKDSRPKLPQTLSRGWGDQLIWTQTYEEALYRSKTSNRPLMVIHHLDECPHSQALKKVFAEHKEIQKLAEQFVLLNLVYETTDKHLSPDGQYVPRIVFVDPSLTVRADITGRYSNRLYAYEPSDTALLYDNMKKALKLLKTEL
chain 2: LRPENLLLVSTLDGSLHALSKQTGDLKWTLRDDPVIEGPMYVTEMAFLSDPADGSLYILGTQKQQGLMKLPFTIPELVHASPCRSSDGVFYTGRKQDAWFVVDPESGETQMTLTTEGPSTPRLYIGRTQYTVTMHDPRAPALRWNTTYRRYSAPPMDGSPGKYMSHLASCGMGLLLTVDPGSGTVLWTQDLGVPVMGVYTWHQDGLRQLPHLTLARDTLHFLALRWGHIRLPASGPRDTATLFSTLDTQLLMTLYVGKDETGFYVSKALVHTGVALVPRGLTLAPADGPTTDEVTLQVSGEREGSPSTAVRYPSGSVALPSQWLLIGHHELPPVLHTTMLRVHPTLGSGTAETRPPENTQAPAFFLELLSLSREKLWDSELHPEEKTPDSYLGL

Variants of: B1
Assay: BLI; HK buffer supplemented with 0.05% Triton X-100 and 1 mM TCEP; 30 °C; IRE1β LD probe immobilised on streptavidin biosensors; parent: 19 nM

screen value [µM]	Variant
124	chain 1 C61S
78.5	chain 1 C61E

Variants of: B1
Assay: BLI; 90 µM AGR2 variant (highest concentration point); HK buffer supplemented with 0.05% Triton X-100 and 1 mM TCEP; 30 °C; parent: 0.6; read off a plot

response [nm]	Variant
~0.3	chain 1 C61S
~0.23	chain 1 C61E
